{"source": "paper PMC8889552", "key": {"[1]": {"biological_target": "recombinant HIV Gag (Pr55^Gag) (HIV)", "assay": "charge detection mass spectrometry"}, "[2]": {"biological_target": "recombinant HIV Gag (Pr55^Gag) (HIV)", "assay": "SPR"}}, "note": "Values joined by “and” are separate entries in the source; they are usually repeats but may differ in a detail not shown here. Equal values may be shown once."}
{"substance": "recombinant HIV Gag (Pr55^Gag) (natural protein)", "values": [{"measurement": "stoichiometry N", "setting": "[1]", "result": "125 mers and 220 mers"}, {"measurement": "fold strengthening of homodimerization (SPR Kd) with Ca^2+", "setting": "[2]", "result": "< 7", "unit": "fold"}]}
